Reference: paper PMC6635409
“And” between values parts separate entries of the source, which are not always exact repeats. Equal entries are not always repeated.

Biological target: nicotinic acetylcholine receptor subunit α9 (CHRNA9) (human (endogenous in BT474, MDA-MB-231, A549, RT4, MIA PaCa-2 and clinical breast tumors)) (UniProt Q9UGM1)
Test: co-IP; endogenous proteins in MDA-MB-231 cells; reciprocal IPs, 1% NP40 lysis buffer, Protein G beads; IP ratio (IPR) against input, threshold >3% in both

UniProt Q9UGM1, sequence (Q9UGM1 23-479): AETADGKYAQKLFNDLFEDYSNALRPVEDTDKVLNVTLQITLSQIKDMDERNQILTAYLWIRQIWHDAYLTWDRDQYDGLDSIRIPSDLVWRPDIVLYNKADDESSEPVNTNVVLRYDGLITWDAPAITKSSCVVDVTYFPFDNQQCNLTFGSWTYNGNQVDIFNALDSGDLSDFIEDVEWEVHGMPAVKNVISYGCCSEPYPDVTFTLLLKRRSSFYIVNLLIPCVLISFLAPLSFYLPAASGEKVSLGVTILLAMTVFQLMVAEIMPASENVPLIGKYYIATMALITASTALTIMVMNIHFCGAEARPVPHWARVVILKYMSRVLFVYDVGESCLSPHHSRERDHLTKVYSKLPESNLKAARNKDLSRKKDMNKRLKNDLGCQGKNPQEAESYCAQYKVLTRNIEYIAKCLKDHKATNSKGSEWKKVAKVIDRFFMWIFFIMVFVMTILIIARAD

IP ratio (IPR): 3.05% and 25.1%
Substance: ABCB1 (from UniProt P08183 1-1280) (natural protein)
